# Reference: the nanobody polyreactivity screen of Harvey et al. (2022)
# Assay: yeast display, Sf9 membrane polyspecificity reagent, FACS + sequencing; frameworks hold sequencing errors
# Method in brief: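 Galactose-induced (36–48 hours) yeast carrying a synthetic nanobody display library were exposed to 10% biotinylated, detergent-solubilized Sf9 membrane reagent at 4 °C for 1 hour. FACS followed streptavidin microbead enrichment, using low and high (top ~1%) gates for expression (anti-HA) and reagent binding (streptavidin). Colony PCR, MiSeq 2 × 250 sequencing and CDR-length filtering followed. Labels for polyreactivity reflect the gate of origin.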
row,Sequence,polyreactivity (PSR sort gate)
1,QVQLVESGGGLVQAGGSLRLSCAASGGTFPYSAMGWYRQAPGKERELVAAISRSGARTYYADSVKGRFTISRDNAKNTVYLQMNSLKPEDTAVYYCATDNTYGYDYWGQGTQVTVSS,high polyreactivity
2,QVQLVESGGGLVQAGGSLRLSCAASGGTFQLNAMGWYRQAPGKERELVATITTGGSTYADSVKGRFTISRDNAKNTVYLQMNSLKPEDTAVYYCNKTCFLVKLDYWGQGTQVTVSS,low polyreactivity
3,QVQLVESGGGLVQAGGSLRLSCAASGGTFQRYVMGWYRQAPGKERELVAAISRSGSTYADSVKGRFTISRDNAKNTVYLQMKSLKPEDTAVYYCNVVSYYRYYLHGYDYWGQGTQVTVSS,high polyreactivity
4,QVQLVESGGGLVQAGGSLRLSCAASGGTFQYHAMGWYRQAPGKERELVAAITRSGGSTYYADSVKGRFTISRDNAKNTVYLQMNSLKPEDTAVYYCAVRYVYGYPRYNYWGQGTQVTVSS,high polyreactivity
5,QVQLVESGGGLVQAGGSLRLSCAASGGTFRNNAMGWYRQAPGKERELVAAISWSGGRTYYADSVKGRFTISRDNAKNTVYLQMNSLKPEDTAVYYCAASYSGRQDRYPHYDYWGQGTQVTVSS,low polyreactivity
6,QVQLVESGGGLVQAGGSLRLSCAASGGTFRPNAMGLYRQAPGKERELVAAISYTGSTYYADSVKGRFTISRDNAKYTVYLQMNSMKPEDTAVYYCAAYGYHRYYLYDYWGQGTQVTVSS,low polyreactivity
7,QVQLVESGGGLVQAGGSLRLSCAASGGTFRYYALGWYRQAPGKERALVAAISSGGSTNYADSVKGRFTISRDNAKNTVYLQMNSLKPEDTAVYYCAADVIYYYAYYTYDYWGQGTQVTVSS,low polyreactivity
8,QVQLVESGGGLVQAGGSLRLSCAASGGTFSFNAMGWSRQAPGKERELVATISWDGGSTYYADSVKGRFTISRDNAKNTVYLQMYSLKPEDTAVYYCNKYVFDRYIYETEYDYWGQGTQVTVSS,high polyreactivity
9,QVQLVESGGGLVQAGGSLRLSCAASGGTFSFYTMVWYRQAPGKERELVAAIDSTGRTNYADSVKGRFTISRDNAKNTVYLQMNSLKPEDTAVYYCAAGPPRADYDYWGQGTQVTVSS,low polyreactivity
10,QVQLVESGGGLVQAGGSLRLSCAASGGTFSNNAMGWYRQAPGKERELVAAISNSGGRTYYADSVKGRFTISRDNAKNTVYLQMNSLKPEDTAVYYCNVRRGYWHPGYGWANYDYWGQGTQVTVSS,high polyreactivity
11,QVQLVESGGGLVQAGGSLRLSCAASGGTFSPNTMGWYRQAPGKERELVAAISSSGSTSYADSVKGRFTISRDNAKNTVYLQMNSLKPEDTAVYYCNADDTISYYASGFDNYHYWGQGTQVTVSS,low polyreactivity
12,QVQLVESGGGLVQAGGSLRLSCAASGGTFSPYAMGWYRQAPGKERELVAVIRSDVTTNYADSVKGRFTISRDNAKNTVYLQMNSLKPEDTAVYYCAVQYLGYGGLFPLDYWGQGTQVTVSS,low polyreactivity
13,QVQLVESGGGLVQAGGSLRLSCAASGGTFSPYDMGWYRQAPGKERELVASITGSGGSTYYADSVKGRFTISRGNAKNTVYLQMNSLKPEDTAVYYCAAQGYWTYWPYLLRLYDYWGQGTQVTVSS,low polyreactivity
14,QVQLVESGGGLVQAGGSLRLSCAASGGTFSRNAMGWYRQAPGKERELVAAINSSGVSTSYADSVKGRFTISRDNAKNTVYLQMNSLKPEDTAVYYCADETSSAEVDYWGQGTQVTVSS,low polyreactivity
15,QVQLVESGGGLVQAGGSLRLSCAASGGTFSRNAMGWYRQAPGKERELVAAITSGGRTNYADSVKGRFTISRDNAKNTVYLKMNSLKAEDTAVYYCAARKGKETLYHSTPPYYYWGQGTQVTVSS,high polyreactivity
16,QVQLVESGGGLVQAGGSLRLSCAASGGTFSSNAMGWYRQAPGKERELVAAITWSGGSTYYADSVKGRFTISRDNAKNTVYLQMNSLKPEDTAVYYCNARNQWRTVGKYDYWGQGTQVTVSS,low polyreactivity
17,QVQLVESGGGLVQAGGSLRLSCAASGGTFSSNDMGWYRQAPGKERELVAAISWSGSSTDYADSVKGRFTISRDNAKNTVYLQMNSLKPDDTAVYYCNTDYWEITYSGVIWPEYDYWGQCTQVTVSS,low polyreactivity
18,QVQLVESGGGLVQAGGSLRLSCAASGGTFSTNAMGWYRQAPGNERELVAAISLSGGRTDADSVKGRFTISRDNAKNTVYLQMNSLKPEDTAVYYCNADSAGITRARSELDYWGQGTQVTVSS,low polyreactivity
19,QVQLVESGGGLVQAGGSLRLSCAASGGTFSVYGMGGYRQAPGKERELVAAITLSGGRTYYADSVKGRFTISRDNATNTLSLQMNSLQPEDTAVYYCNTLPWSRTKRDYWGQGTQGTVSS,low polyreactivity
20,QVQLVESGGGLVQAGGSLRLSCAASGGTFSYNAMGWYRQAPGKERELVAAISWSGTRTYYADSVKGRFTISRDNAKNTVYLQMNSLKPEDTAVYYCNKTPPNRGRYDYCGQGTQVTVSS,low polyreactivity
21,QVQLVESGGGLVQAGGSLRLSCAASGGTFSYYAMGWYRQAPGKERELVASISTDGGSTYYADSVKGRFTISRDNAKNTVYLQMNSLKPEDTAVYYCNARPRGYSDRYGYWGQGTQVTVSS,high polyreactivity

row,Sequence,polyreactivity (PSR sort gate)
1,QVQLVESGGGLVQAGGSLRLSCAASGGTFSYYTMGWYRQAPGKERELVARISKNGGRTYYADSVKGRFTISRDNAKNTVYLQMNCLKPEDTAVYYCNAAGRTYDFSGGRTMEYWGQGTQVTVSS,high polyreactivity
2,QVQLVESGGGLVQAGGSLRLSCAASGGTFTFYAMGWYRQAPGKERELVATINWSGGSTYYADSVKGRFTNSRDNAKNTVYLQMNSLKPEDTAVYYCNAAWAYKSVEYWGQGTQVTVSS,low polyreactivity
3,QVQLVESGGGLVQAGGSLRLSCAASGGTFVGYAMGWSRQAPGKERELVASITRRGGNTYYADSVKVRFTISRDNATNTFYLQMNSLNPEDTAVYYCANALVVQYGRYTGHPYDYWGQGTQVTVSS,high polyreactivity
4,QVQLVESGGGLVQAGGSLRLSCAASGGTFVYYTMGWYRQAPGKERELVAAITQSGSTTYYADSVKGRFTISRDNAKNTVYLQMNSLKPEDTAVYYCARRYGTWNAYDYWGQGTQVTVSS,low polyreactivity
5,QVQLVESGGGLVQAGGSLRLSCAASGGTFYGYAAMGWYRQAPGKERELVAAISRSGGRTYYADSVKGRFTISRDNAKNTVYLQMNSLKPEDTAVYYCNVGFYPYYFLTYQGGDYWGQGTQVTVSS,high polyreactivity
6,QVQLVESGGGLVQAGGSLRLSCAASGGTFYGYAMGWYRQAPGKERELVAAISYNGGNTYYADSVKGRFTISRDNAKNTVYLQMNSLKAEDTAVYYCAAGYSYRYGYWGQGTQLTVSS,low polyreactivity
7,QVQLVESGGGLVQAGGSLRLSCAASGGTFYPYAMGWYRQAPGKERELVAAISASDDNTYYADSVKGRFTISRDNAKNTVYLQMNSLKPEDTAVYYCAKRSYFYPYGYWGQGTQVTVSS,high polyreactivity
8,QVQLVESGGGLVQAGGSLRLSCAASGGTFYRNAMGWSRQAPGKERELVAAINYRGDRTYYADSVKGRFTISRDNAKNTVYLQMNSLKPEDTAVYYCAADSYPAYLGFVGFDYWGQGTQVTVSS,low polyreactivity
9,QVQLVESGGGLVQAGGSLRLSCAASGGTFYRYAMGWYRQAPGKERELVAVISKRGGTTYYADSVKGRFTISRDNAKITVYLQMNSLKPEDTAVYYCADRPYYWGQGTQVTVSS,high polyreactivity
10,QVQLVESGGGLVQAGGSLRLSCAASGGTFYSYAMGWYRQAPGIEREVVAAISRRGGSTYYADSVKGRFTISRDNAKNTVYLLMNSLKPEDTAVYFCNTYIYQVRDDYWGQGTQVTVSS,high polyreactivity
11,QVQLVESGGGLVQAGGSLRLSCAASGGTFYYYAMGWYRQAPGKERELVAAISRDGSTYYADSVKGRFTISRDNAKNTVYLQMNSLKPEDTAVYYCAVRTRRKYGYWGQGTQVTVSS,high polyreactivity
12,QVQLVESGGGLVQAGGSLRLSCAASGGTIAPYAMGWSRQAPGKERELVATISYSGTSTNYADSVKGRFTISRDNAKNTVYLQMNSLKPEDTAVYDCAKRYHQYRWRGWLWGFDYWGQGNQVTVSS,high polyreactivity
13,QVQLVESGGGLVQAGGSLRLSCAASGGTIFAYAMGWYIQAPRERELVPAISWSGDSTYYADSLKGRFTISRDNAKNTVYLQMNSLKPEETAVYYCAADYGFEFYYWGQGTQVTVAS,high polyreactivity
14,QVQLVESGGGLVQAGGSLRLSCAASGGTIGSNTMGWYRQAPGKERELVAAITSGVSTNYADSVKGRFTISRDNAKNTVYLQMISLKPEDNAVYYCAKVLWSEEYETIITSYGFDYWGQGTQVTVSS,low polyreactivity
15,QVQLVESGGGLVQAGGSLRLSCAASGGTINGNTMGWYRQAPGKERELVAVIDWSGGSTYYADSVKGRFTISRDNAKNTVYLQMNSLKPEDTAVNYCNADSDAQFREPKGMYYWGQGTQVTLSS,low polyreactivity
16,QVQLVESGGGLVQAGGSLRLSCAASGGTIRVYAMRWYRQAPGKERELVAAITGRGGSTYYADSVKGRFTISRDNAKNTVYLQMNSLKPEDTAVYYCAKDPVTTYYKYDYWGQGTQVTVSS,low polyreactivity
17,QVQLVESGGGLVQAGGSLRLSCAASGGTIVYYAMGWYREAPGKERELVAAINWSGGSTYYADSVKGRFTISRDKAKNTVYLQMNSLKPEDTAVLLLQRSGLRRSGVWFDYWGQGTQVTVSS,low polyreactivity
18,QVQLVESGGGLVQAGGSLRLSCAASGGTIYFYDMGWYRQAPGKEREFVAAIDGSAGRTYYADSVKGRFTISRDNAKNTVYLQMNSLKPEDTAVYYCAADWAQQSEQEYGTTYDYWGQGTQVTVSS,low polyreactivity
19,QVQLVESGGGLVQAGGSLRLSCAASGGTLKYYAMGLYRQAPGKERELVATISSRGGSTYYADSVKGRFTISRDNAKNTVYLQMNSLKPEDTAVYYCARRYWVQSRYPELDYWGQGTQVTVSS,high polyreactivity
20,QVQLVESGGGLVQAGGSLRLSCAASGGTLPKYAMGWYRQAPGKERELVARITWNDGTTYYADSVKGRFTISRDNAKNTVYLQMNSLKPEDTAVYYCNTDRAYWFLYPFSYYYWGQGTQVTVSS,low polyreactivity
